Reference: article PMC4585563, “Small angle X-ray scattering studies of CTNNBL1 dimerization and CTNNBL1/CDC5L complex” (Scientific Reports, 2015)

Target: the molecule itself
Assay: SEC; Superdex 200 10/300, 500 μl of 2 mg/ml protein, 0.5 ml/min, 40 mM Tris-HCl pH 8.0, 150 mM NaCl; molecular weight from calibration standards

| Protein | stoichiometry N |
| --- | --- |
| CTNNBL1^E278A (domain or fragment, human, UniProt Q8WYA6 77-563, looked up, human CTNNBL1, residues 77-563, point mutant made by site-directed mutagenesis; source: E. coli, purified as wild-type CTNNBL1; not shown: 6xHis, N-terminal, cleaved; VHb (bacterial hemoglobin), N-terminal, cleaved) LDESSVKKMILTFEKRSYKNQELRIKFPDNPEKFMESELDLNDIIQEMHVVATMPDLYHLLVELNAVQSLLGLLGHDNTDVSIAVVDLLQELTDIDTLHESEEGAEVLIDALVDGQVVALLVQNLERLDESVKEEADGVHNTLAIVENMAEFRPEMCTEGAQQGLLQWLLKRLKAKMPFDANKLYCSEVLAILLQDNDENRALLGELDGIDVLLQQLSVFKRHNPSTAEEQEMMENLFDSLCSCLMLSSNRERFLKGEGLQLMNLMLREKKISRSSALKVLDHAMIGPEGTDNCHKFVDILGLRTIFPLFMKSPRKIKKVGTTEKEHEEHVCSILASLLRNLRGQQRTRLLNKFTENDSEKVDRLMELHFKYLGAMQVADKKIEGEKHDMVRRGEIIDNDTEEEFYLRRLDAGLFVLQHICYIMAEICNANVPQIRQRVHQILNMRGSSIKIVRHIIKEYAENIGDGRSPEFRENEQKRILGLLENF | 2 |
| CTNNBL1^E282A (domain or fragment, human, UniProt Q8WYA6 77-563, looked up, human CTNNBL1, residues 77-563, point mutant made by site-directed mutagenesis; source: E. coli, purified as wild-type CTNNBL1; not shown: 6xHis, N-terminal, cleaved; VHb (bacterial hemoglobin), N-terminal, cleaved) LDESSVKKMILTFEKRSYKNQELRIKFPDNPEKFMESELDLNDIIQEMHVVATMPDLYHLLVELNAVQSLLGLLGHDNTDVSIAVVDLLQELTDIDTLHESEEGAEVLIDALVDGQVVALLVQNLERLDESVKEEADGVHNTLAIVENMAEFRPEMCTEGAQQGLLQWLLKRLKAKMPFDANKLYCSEVLAILLQDNDENRELLGALDGIDVLLQQLSVFKRHNPSTAEEQEMMENLFDSLCSCLMLSSNRERFLKGEGLQLMNLMLREKKISRSSALKVLDHAMIGPEGTDNCHKFVDILGLRTIFPLFMKSPRKIKKVGTTEKEHEEHVCSILASLLRNLRGQQRTRLLNKFTENDSEKVDRLMELHFKYLGAMQVADKKIEGEKHDMVRRGEIIDNDTEEEFYLRRLDAGLFVLQHICYIMAEICNANVPQIRQRVHQILNMRGSSIKIVRHIIKEYAENIGDGRSPEFRENEQKRILGLLENF | 2 |
| CTNNBL1^L87R/I101R (domain or fragment, human, UniProt Q8WYA6 77-563, looked up, human CTNNBL1, residues 77-563, double-point mutant (capping region); also called capping region mutant; source: E. coli, purified as wild-type CTNNBL1; not shown: 6xHis, N-terminal, cleaved; VHb (bacterial hemoglobin), N-terminal, cleaved) LDESSVKKMIRTFEKRSYKNQELRRKFPDNPEKFMESELDLNDIIQEMHVVATMPDLYHLLVELNAVQSLLGLLGHDNTDVSIAVVDLLQELTDIDTLHESEEGAEVLIDALVDGQVVALLVQNLERLDESVKEEADGVHNTLAIVENMAEFRPEMCTEGAQQGLLQWLLKRLKAKMPFDANKLYCSEVLAILLQDNDENRELLGELDGIDVLLQQLSVFKRHNPSTAEEQEMMENLFDSLCSCLMLSSNRERFLKGEGLQLMNLMLREKKISRSSALKVLDHAMIGPEGTDNCHKFVDILGLRTIFPLFMKSPRKIKKVGTTEKEHEEHVCSILASLLRNLRGQQRTRLLNKFTENDSEKVDRLMELHFKYLGAMQVADKKIEGEKHDMVRRGEIIDNDTEEEFYLRRLDAGLFVLQHICYIMAEICNANVPQIRQRVHQILNMRGSSIKIVRHIIKEYAENIGDGRSPEFRENEQKRILGLLENF | 2 |
| CTNNBL1^G148R/Q192R/Q199R (domain or fragment, human, UniProt Q8WYA6 77-563, looked up, human CTNNBL1, residues 77-563, triple-point mutant (ARM I and ARM II); also called ARM I and ARM II mutant; source: E. coli, purified as wild-type CTNNBL1; not shown: 6xHis, N-terminal, cleaved; VHb (bacterial hemoglobin), N-terminal, cleaved) LDESSVKKMILTFEKRSYKNQELRIKFPDNPEKFMESELDLNDIIQEMHVVATMPDLYHLLVELNAVQSLLRLLGHDNTDVSIAVVDLLQELTDIDTLHESEEGAEVLIDALVDGRVVALLVRNLERLDESVKEEADGVHNTLAIVENMAEFRPEMCTEGAQQGLLQWLLKRLKAKMPFDANKLYCSEVLAILLQDNDENRELLGELDGIDVLLQQLSVFKRHNPSTAEEQEMMENLFDSLCSCLMLSSNRERFLKGEGLQLMNLMLREKKISRSSALKVLDHAMIGPEGTDNCHKFVDILGLRTIFPLFMKSPRKIKKVGTTEKEHEEHVCSILASLLRNLRGQQRTRLLNKFTENDSEKVDRLMELHFKYLGAMQVADKKIEGEKHDMVRRGEIIDNDTEEEFYLRRLDAGLFVLQHICYIMAEICNANVPQIRQRVHQILNMRGSSIKIVRHIIKEYAENIGDGRSPEFRENEQKRILGLLENF | 2 |
| CTNNBL1^Q238A/E278A/E282A (domain or fragment, human, UniProt Q8WYA6 77-563, looked up, human CTNNBL1, residues 77-563, triple-point mutant (ARM III and ARM IV); also called Arm III and Arm IV mutant; source: E. coli, purified as wild-type CTNNBL1; not shown: 6xHis, N-terminal, cleaved; VHb (bacterial hemoglobin), N-terminal, cleaved) LDESSVKKMILTFEKRSYKNQELRIKFPDNPEKFMESELDLNDIIQEMHVVATMPDLYHLLVELNAVQSLLGLLGHDNTDVSIAVVDLLQELTDIDTLHESEEGAEVLIDALVDGQVVALLVQNLERLDESVKEEADGVHNTLAIVENMAEFRPEMCTEGAAQGLLQWLLKRLKAKMPFDANKLYCSEVLAILLQDNDENRALLGALDGIDVLLQQLSVFKRHNPSTAEEQEMMENLFDSLCSCLMLSSNRERFLKGEGLQLMNLMLREKKISRSSALKVLDHAMIGPEGTDNCHKFVDILGLRTIFPLFMKSPRKIKKVGTTEKEHEEHVCSILASLLRNLRGQQRTRLLNKFTENDSEKVDRLMELHFKYLGAMQVADKKIEGEKHDMVRRGEIIDNDTEEEFYLRRLDAGLFVLQHICYIMAEICNANVPQIRQRVHQILNMRGSSIKIVRHIIKEYAENIGDGRSPEFRENEQKRILGLLENF | 2 |
